Assay results taken from PMC7718890, “High-throughput screening to discover inhibitors of the CarD·RNA polymerase protein–protein interaction in Mycobacterium tuberculosis” (Scientific Reports, 2020).

Columns and labels:
[1] = target: CarD T8C labelled with BODIPY-FL (Mycobacterium tuberculosis) (UniProt P9WJG3); experiment: fluorescence polarisation
[2] = target: Mycobacterium tuberculosis RNA polymerase, wild type (Mycobacterium tuberculosis) (UniProt P9WGY9); experiment: fluorescence polarisation

Substance | Kd [1] [nM] | Ki [2] [nM]
Mycobacterium tuberculosis RNA polymerase, wild type (from UniProt P9WGY9 8-1140) (complex) | 65 | 
Wild-type MTB CarD, unlabeled (from UniProt P9WJG3 1-162) (natural protein) |  | 8
